# Positions count from the first letter of the chain named.
# B1: SAD10319_P01_D01 (ADI-48622) (antibody, V domains shown)
# VH: QVQLVQSGAEVKKPGASVKVSCKASGYTFKSYDMHWVRQAPGQRLEWMGWIDAGTGNTKYSQKFQGRVTITRDTSASTAYMELSSLRSEDTAVYYCARDAYGRYFYDVWGQGTLVTVSS
# VL: DIVMTQSPDSLAVSLGERATINCKSSQSLLNARTGKNYLAWYQQKPGQPPKLLIYWASTRESGVPDRFSGSGSGTDFTLTISSLQAEDVAVYYCKQSYSRRTFGGGTKVEIK
# notes: IgG; also called Ab231
# B2: SAD10319_P01_H01 (ADI-48623) (antibody, V domains shown)
# VH: B1 VH with K30D, S31D, D33A, N57D, A100H, G102H
# VL: B1 VL
# notes: IgG; also called Ab235
# B3: SAD10319_P01_C03 (ADI-48626) (antibody, V domains shown)
# VH: B1 VH with K30T, S31D, A53P, G54Y, N57A, R103H
# VL: B1 VL
# notes: IgG; also called Ab244
# B4: SAD10319_P01_A01 (ADI-48619) (antibody, V domains shown)
# VH: B1 VH with K30A, D33A, D52N, A53P, G54D, K59V, G102H, R103H
# VL: B1 VL
# notes: IgG; also called Ab229
# B5: SAD10319_P01_F02 (ADI-48624) (antibody, V domains shown)
# VH: B1 VH with K30E, R72A, T74E, A76T, A100H, R103H
# VL: B1 VL
# notes: IgG; also called Ab241
# B6: SAD10319_P02_D06 (ADI-48631) (antibody, V domains shown)
# VH: B1 VH with K30T, S31D, D33A, D52N, N57A, K59I, G102H, R103H
# VL: B1 VL
# notes: IgG; also called Ab11
# B7: SAD10319_P02_A05 (ADI-48629) (antibody, V domains shown)
# VH: B1 VH with K30D, D33A, D52N, A53P, G54N, N57A, K59T, A100H, R103H
# VL: B1 VL
# notes: IgG; also called Ab255
# B8: SAD10319_P01_F03 (ADI-48627) (antibody, V domains shown)
# VH: B1 VH with K30E, D52N, N57A, K59V, G102H, R103H
# VL: B1 VL
# notes: IgG; also called Ab246
# B9: SAD10319_P02_E05 (ADI-48630) (antibody, V domains shown)
# VH: B1 VH with K30D, D33I, N57A, K59V, R103H, V108H
# VL: B1 VL
# notes: IgG; also called Ab4
# B10: SAD10319_P01_C01 (ADI-48621) (antibody, V domains shown)
# VH: B1 VH with K30T, S31D, N57L, A100H, R103H
# VL: B1 VL
# notes: IgG; also called Ab230
# B11: SAD10318_P03_E09 (ADI-48611) (antibody, V domains shown)
# VH: QVQLVQSGAEVKKPGASVKVSCKASGFNIKDYYMHWVRQAPGQRLEWMGWIDLENANTIYDAKFQGRVTITRDTSASTAYMELSSLRSEDTAVYYCARDAYGHYHYDVWGQGTLVTVS
# VL: B1 VL with K36H, Y38H, S99H, R100H
# notes: IgG; also called Ab207
# B12: SAD10319_P02_H06 (ADI-48633) (antibody, V domains shown)
# VH: B1 VH with K30T, S31A, D33V, W50S, R103H, V108H
# VL: B1 VL
# notes: IgG; also called Ab16
# B13: SAD10319_P01_H02 (ADI-48625) (antibody, V domains shown)
# VH: B1 VH with K30T, S31D, D33A, D52N, A53P, G54S, N57A, K59V, G102H, R103H
# VL: B1 VL
# notes: IgG; also called Ab242
# B14: SAD10319_P02_G06 (ADI-48632) (antibody, V domains shown)
# VH: B1 VH with K30T, D33A, D52N, A53P, G54D, N57A, K59V, G102H, R103H
# VL: B1 VL
# notes: IgG; also called Ab15
# B15: SAD10320_P02_H05 (ADI-48652) (antibody, V domains shown)
# VH: QVQLVQSGAEVKKPGASVKVSCKASGFNIKDYYMHWVRQAPGQRLEWMGWIDLENANTIYDAKFQGRVTITRDTSASTAYMELSSLRSEDTAVYYCARDAHHRYFYDVWGQGTLVTVSS
# VL: B1 VL with Y98H
# notes: IgG; also called Ab81
# B16: SAD10320_P02_E04 (ADI-48649) (antibody, V domains shown)
# VH: B15 VH with H101Y, R103E
# VL: B1 VL with Y98H, S99V
# notes: IgG; also called Ab72
# B17: SAD10320_P04_G10 (ADI-48658) (antibody, V domains shown)
# VH: B15 VH with H101Y, H102G, R103H, Y104D
# VL: B1 VL
# notes: IgG; also called Ab108
# B18: SAD10320_P02_C04 (ADI-48648) (antibody, V domains shown)
# VH: B15 VH with H101Y, H102G
# VL: B1 VL with Y98H, S99T
# notes: IgG; also called Ab71
# B19: SAD10320_P04_H11 (ADI-48662) (antibody, V domains shown)
# VH: B15 VH with H101Y, H102G, R103H, Y104V
# VL: B1 VL with S99Q, R100H
# notes: IgG; also called Ab116
# B20: SAD10320_P02_F05 (ADI-48651) (antibody, V domains shown)
# VH: B15 VH with H101Y, H102G, F105H
# VL: B1 VL with S99R, R100H
# notes: IgG; also called Ab79
# B21: SAD10320_P01_D01 (ADI-48644) (antibody, V domains shown)
# VH: B15 VH with H101Y, H102G, R103H, Y104G
# VL: B1 VL with R100H
# notes: IgG; also called Ab48
# B22: SAD10320_P02_B06 (ADI-48653) (antibody, V domains shown)
# VH: B15 VH with H101Y, H102G, R103H, Y104W
# VL: B1 VL with S99H, R100H
# notes: IgG; also called Ab83
# B23: SAD10320_P03_D09 (ADI-48655) (antibody, V domains shown)
# VH: B15 VH with H101Y, H102G, R103H, Y104D
# VL: B1 VL with Y98W, S99H
# notes: IgG; also called Ab100
# B24: SAD10320_P02_C06 (ADI-48654) (antibody, V domains shown)
# VH: B15 VH with H101Y, H102G
# VL: B1 VL with Y98G, S99H
# notes: IgG; also called Ab84
# B25: SAD10320_P04_E10 (ADI-48657) (antibody, V domains shown)
# VH: B15 VH with L45P, H101Y, H102G, R103H, Y104D
# VL: B1 VL
# notes: IgG; also called Ab106
# B26: SAD10320_P01_E01 (ADI-48645) (antibody, V domains shown)
# VH: B15 VH with H101Y, H102G, R103H, Y104V
# VL: B1 VL with S99K, R100H
# notes: IgG; also called Ab49
# B27: SAD10320_P01_B01 (ADI-48643) (antibody, V domains shown)
# VH: B15 VH with H101Y, H102G, R103H, Y104I
# VL: B1 VL with S99V, R100H
# notes: IgG; also called Ab46
# B28: SAD10320_P03_F09 (ADI-48656) (antibody, V domains shown)
# VH: B15 VH with H101Y, H102G, R103H, Y104D
# VL: B1 VL with S99H
# notes: IgG; also called Ab101
# B29: SAD10320_P01_A02 (ADI-48646) (antibody, V domains shown)
# VH: B15 VH with H101Y, H102P, R103H
# VL: B1 VL with S99H, R100E
# notes: IgG; also called Ab53
# B30: SAD10320_P01_F03 (ADI-48647) (antibody, V domains shown)
# VH: B15 VH with H101Y, H102P, R103H
# VL: B1 VL with S99L, R100H
# notes: IgG; also called Ab65
# B31: SAD10318_P02_C05 (ADI-48597) (antibody, V domains shown)
# VH: B15 VH
# VL: DIVMTQSPDSLAVSLGERATINCKSSQSLLNARTGHNHLAWYQQKPGQPPKLLIYWASTRESGVPDRFSGSGSGTDFTLTISSLQAEDVAVYYCKQSHSHRTFGGGTKVEI
# notes: IgG; also called Ab180
# B32: SAD10320_P02_D05 (ADI-48650) (antibody, V domains shown)
# VH: B15 VH with H101T
# VL: B31 VL with H36K, H38Y, S99T, H100R
# notes: IgG; also called Ab77
# Molecular target: T1, human CD3 on CD3+ Jurkat cells (human, UniProt P07766 23-207)
# T1 construct: whole, on cells; Native CD3 complex on cells; the other CD3 chains are not specified for this assay; also called Human CD3+ Jurkat
# T1 sequence (P07766 23-207): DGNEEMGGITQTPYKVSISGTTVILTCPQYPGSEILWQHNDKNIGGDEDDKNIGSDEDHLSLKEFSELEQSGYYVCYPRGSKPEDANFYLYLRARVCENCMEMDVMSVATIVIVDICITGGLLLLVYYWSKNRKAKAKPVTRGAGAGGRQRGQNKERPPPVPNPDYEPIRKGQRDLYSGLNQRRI
# Assay: flow cytometry on CD3+ Jurkat cells, ratio of MFI at pH 6.0 to pH 7.4
# In short: (§1)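 Jurkat cells incubated 20 min on ice with 100 nM yeast-produced IgG in PBS + 0.1% BSA at pH 6.0 or pH 7.4, with all washes and staining at the same pH. Bound antibody detected with anti-human IgG-RPE, dead cells excluded by propidium iodide; MFI measured by flow cytometry.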
row,MFI pH 6.0/MFI pH 7.4,Binder
1,5.4,B1
2,12,B2
3,8.6,B3
4,13.5,B4
5,15.4,B5
6,13.4,B6
7,3.6,B7
8,7.4,B8
9,1.1,B9
10,14.8,B10
11,2.6,B11
12,1.9,B12
13,13.6,B13
14,15.1,B14
15,1.2,B15
16,3.6,B16

row,MFI pH 6.0/MFI pH 7.4,Binder
1,0.4,B17
2,1.2,B18
3,1.8,B19
4,1.4,B20
5,6.9,B21
6,3,B22
7,2,B23
8,1.1,B24
9,11.7,B25
10,11.1,B26
11,15.9,B27
12,4.9,B28
13,24.1,B29
14,30.9,B30
15,21.7,B31
16,1.1,B32

# Molecular target: T1, human CD3 on CD3+ Jurkat cells
# Assay: flow cytometry, 100 nM IgG on CD3+ Jurkat cells, pH 6.0
# In short: as §1
row,MFI pH 6.0,Binder
1,3060 MFI,B1
2,1760 MFI,B2
3,3160 MFI,B3
4,1750 MFI,B4
5,895 MFI,B5
6,3100 MFI,B6
7,1780 MFI,B7
8,335 MFI,B8
9,5540 MFI,B9
10,731 MFI,B10
11,123 MFI,B11
12,2790 MFI,B12
13,1730 MFI,B13
14,1620 MFI,B14
15,5750 MFI,B15
16,2320 MFI,B16

row,MFI pH 6.0,Binder
1,113 MFI,B17
2,6160 MFI,B18
3,81 MFI,B19
4,5620 MFI,B20
5,860 MFI,B21
6,3110 MFI,B22
7,1180 MFI,B23
8,5590 MFI,B24
9,786 MFI,B25
10,450 MFI,B26
11,4200 MFI,B27
12,185 MFI,B28
13,1270 MFI,B29
14,4340 MFI,B30
15,1320 MFI,B31
16,6010 MFI,B32

# Molecular target: T1, human CD3 on CD3+ Jurkat cells
# Assay: flow cytometry, 100 nM IgG on CD3+ Jurkat cells, pH 7.4
# In short: as §1
row,MFI pH 7.4,Binder
1,567 MFI,B1
2,147 MFI,B2
3,369 MFI,B3
4,129 MFI,B4
5,58 MFI,B5
6,232 MFI,B6
7,499 MFI,B7
8,45 MFI,B8
9,5060 MFI,B9
10,49 MFI,B10
11,47 MFI,B11
12,1450 MFI,B12
13,128 MFI,B13
14,107 MFI,B14
15,4760 MFI,B15
16,639 MFI,B16

row,MFI pH 7.4,Binder
1,316 MFI,B17
2,5140 MFI,B18
3,44 MFI,B19
4,4110 MFI,B20
5,124 MFI,B21
6,1030 MFI,B22
7,581 MFI,B23
8,4890 MFI,B24
9,67 MFI,B25
10,41 MFI,B26
11,265 MFI,B27
12,38 MFI,B28
13,53 MFI,B29
14,141 MFI,B30
15,61 MFI,B31
16,5430 MFI,B32

# — patent publication US20220380463A1 (Adimab, published 2022)
